Assay results from article PMC6829520.

B1: hTREK-1 / hK2P2.1: N110Q (protein)
parent chain: MLPSASRERPGYRAGVAAPDLLDPKSAAQNSKPRLSFSTKPTVLASRVESDTTINVMKWKTVSTIFLVVVLYLIIGATVFKALEQPHEISQRTTIVIQKQTFISQHSCVNSTELDELIQQIVAAINAGIIPLGNTSNQISHWDLGSSFFFAGTVITTIGFGNISPRTEGGKIFCIIYALLGIPLFGFLLAGVGDQLGTIFGKGIAKVEDTFIKWNVSQTKIRIISTIIFILFGCVLFVALPAIIFKHIEGWSALDAIYFVVITLTTIGFGDYVAGGSDIEYLDFYKPVVWFWILVGLAYFAAVLSMIGDWLRVISKKTKEEVGEFRAHAAEWTANVTAEFKETRRRLSVEIYDKFQRATSIKRKLSAELAGNHNQELTPCRRTLSVNHLTSERDVLPPLLKTESIYLNGLTPHCAGEEIAVIENIK
B2: hTREK-1 / hK2P2.1: tunicamycin (incubation or injection) (protein)
parent chain: B1 parent chain
B3: hTREK-1 / hK2P2.1: N134Q (protein)
parent chain: B1 parent chain
B4: hTREK-1 / hK2P2.1: tunicamycin coinjection (2 or 3 ng per oocyte) (protein)
parent chain: B1 parent chain
B5: hTREK-1 / hK2P2.1: tunicamycin incubation (0.75 or 1.5 mg/L) (protein)
parent chain: B1 parent chain
B6: hTREK-1 / hK2P2.1: N110Q/N134Q (protein)
parent chain: B1 parent chain
B7: hTREK-1 / hK2P2.1: tunicamycin (protein)
parent chain: B1 parent chain

Key:
TEVC, Xenopus oocytes = settings: glycan lost
[1] = eGFP fluorescence microscopy with WGA membrane stain, HeLa; settings: glycan lost; control: hTREK-1-WT-eGFP
[2] = TEVC, Xenopus oocytes, +20 mV, 48 h; settings: glycan lost; control: wild type
[3] = TEVC, oocytes, 24 h versus 48 h; settings: glycan lost; control: wild type
[4] = TEVC pulse step protocol, oocytes, 48 h; settings: glycan lost; control: wild type
[5] = surface biotinylation, streptavidin pull-down, immunoblot, HEK-293T; settings: glycan lost; control: wild type
[6] = TEVC, Xenopus oocytes, +20 mV, 24/48 h; settings: glycan lost; control: DMSO vehicle
[7] = TEVC pulse step protocol, oocytes; settings: glycan lost; control: DMSO vehicle

| Protein | other: resting membrane potential (TEVC, Xenopus oocytes; control: wild type) | localisation_or_trafficking [1] | other: channel current, percent_of_wt [2] | other: current at 24 h relative to 48 h (onset of current), other: 24 h current as % of 48 h current [3] | other: current-voltage relationship [4] | localisation_or_trafficking, other: reduction of surface fraction relative to WT [5] | also measured |
| --- | --- | --- | --- | --- | --- | --- | --- |
| B1 | changes | no change | decreases | decreases, 54 vs 57 % to 66% | no change | decreases, reduction of surface protein expression (about 16 % for both, N110Q and N134Q) | – |
| B2 | – | – | – | – | – | – | other: resting membrane potential (TEVC, Xenopus oocytes; control: DMSO vehicle): changes |
| B3 | changes | no change | decreases | decreases, 41 vs 57 % to 66% | no change | decreases | – |
| B4 | – | – | – | – | – | – | other: channel current [6]: decreases |
| B5 | – | – | – | – | – | – | other: channel current [6]: decreases, tunicamycin treatment (incubation with 1.5 mg/L) resulted in a current reduction of 79.4% |
| B6 | changes | no change | decreases, a current reduction of 65.5 ± 0.7 % in nonglycosylated subunits | decreases, 31 vs 57 % to 66% | no change | decreases, accompanied by a reduction in surface expression of 70.2% | – |
| B7 | – | – | – | – | – | – | other: current-voltage relationship [7]: no change |
